Experimental data as given in patent CN115368448A (HEFEI TIANGANG IMMUNOLOGY PHARMACEUTICAL CO LTD, dated 2022).

What was measured:
[1] = molecular target: T1, CD33 on human acute myeloid leukaemia HL-60 tumour cells (human, UniProt P20138 18-364); experiment: flow cytometry on HL-60 cells, Alexa-647 anti-human Fc secondary
T1 construct: whole, on cells; also called 人急性髓系细胞白血病HL-60肿瘤细胞; HL-60细胞

[2] = molecular target: T2, CD27蛋白 (SEQ ID NO:27), expressed on transduced cells (Homo sapiens (Human), UniProt P26842 20-260); experiment: flow cytometry on CHO-K1-CD27 cells, Alexa-647 anti-human Fc secondary
T2 construct: The entry includes the signal peptide; also called CHO-K1-CD27细胞; Jurkat-NFAT-lucia-CD27细胞
T2 sequence: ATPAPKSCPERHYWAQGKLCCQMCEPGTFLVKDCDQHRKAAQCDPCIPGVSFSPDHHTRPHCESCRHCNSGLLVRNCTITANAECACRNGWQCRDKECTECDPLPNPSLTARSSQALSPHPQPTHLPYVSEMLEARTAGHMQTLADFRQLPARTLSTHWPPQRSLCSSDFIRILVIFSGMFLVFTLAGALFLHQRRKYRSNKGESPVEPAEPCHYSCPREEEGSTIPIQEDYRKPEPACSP

[3] = molecular target: T3, CD33蛋白 (SEQ ID NO:29), expressed on transduced cells (Homo sapiens (Human), UniProt P20138 18-364); experiment: flow cytometry on CHO-K1-CD33 cells, Alexa-647 anti-human Fc secondary
T3 construct: The entry includes the signal peptide; also called CHO-K1-CD33细胞; A375-CD33细胞

[4] = molecular target: T4, CD27 on human peripheral blood CD8+ T cells (human, UniProt P26842 20-260); experiment: flow cytometry on human PBMC gated on CD8+ T cells, Alexa-647 anti-human Fc secondary
T4 construct: whole, on cells; also called 人外周血T细胞; 人外周血CD8+ T细胞
T4 sequence (looked up): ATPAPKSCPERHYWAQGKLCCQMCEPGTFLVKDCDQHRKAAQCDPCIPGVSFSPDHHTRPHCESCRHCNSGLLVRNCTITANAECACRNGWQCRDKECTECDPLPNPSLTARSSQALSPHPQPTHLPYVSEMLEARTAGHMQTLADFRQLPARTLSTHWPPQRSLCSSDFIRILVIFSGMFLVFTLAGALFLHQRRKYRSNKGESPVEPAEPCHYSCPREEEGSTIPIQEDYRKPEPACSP

Measured: binding result

T1 sequence (P20138 18-364): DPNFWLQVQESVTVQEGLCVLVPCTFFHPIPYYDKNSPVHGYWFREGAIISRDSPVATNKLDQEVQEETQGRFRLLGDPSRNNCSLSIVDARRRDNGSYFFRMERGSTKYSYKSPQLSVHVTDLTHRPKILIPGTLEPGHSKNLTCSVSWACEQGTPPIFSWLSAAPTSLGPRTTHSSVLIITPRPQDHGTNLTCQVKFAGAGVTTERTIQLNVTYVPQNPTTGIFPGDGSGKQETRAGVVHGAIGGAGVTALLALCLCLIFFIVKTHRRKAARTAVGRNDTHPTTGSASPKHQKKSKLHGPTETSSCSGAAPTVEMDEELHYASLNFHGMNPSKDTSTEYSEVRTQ
T3 sequence (P20138 18-364 limits assumed): as the sequence (P20138 18-364) above

B1: CD27×CD33双特异抗体 (bispecific antibody, human IgG1, kappa, L234A L235A)
chain: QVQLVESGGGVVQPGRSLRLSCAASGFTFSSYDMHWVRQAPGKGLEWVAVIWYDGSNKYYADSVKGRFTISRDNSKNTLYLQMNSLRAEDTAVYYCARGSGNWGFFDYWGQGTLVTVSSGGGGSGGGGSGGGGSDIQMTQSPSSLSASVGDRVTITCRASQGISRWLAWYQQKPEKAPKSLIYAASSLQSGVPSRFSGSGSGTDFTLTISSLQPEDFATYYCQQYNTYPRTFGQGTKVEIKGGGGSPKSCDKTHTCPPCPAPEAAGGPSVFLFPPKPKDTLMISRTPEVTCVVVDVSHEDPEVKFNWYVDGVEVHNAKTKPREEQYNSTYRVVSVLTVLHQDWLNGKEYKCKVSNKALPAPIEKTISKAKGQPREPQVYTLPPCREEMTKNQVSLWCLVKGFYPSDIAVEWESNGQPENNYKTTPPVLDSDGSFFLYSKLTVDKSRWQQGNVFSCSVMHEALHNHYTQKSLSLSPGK
heavy: EVQLVQSGAEVKKPGSSVKVSCKASGYTITDSNIHWVRQAPGQSLEWIGYIYPYNGGTDYNQKFKNRATLTVDNPTNTAYMELSSLRSEDTAFYYCVNGNPWLAYWGQGTLVTVSSASTKGPSVFPLAPSSKSTSGGTAALGCLVKDYFPEPVTVSWNSGALTSGVHTFPAVLQSSGLYSLSSVVTVPSSSLGTQTYICNVNHKPSNTKVDKKVEPKSCDKTHTCPPCPAPEAAGGPSVFLFPPKPKDTLMISRTPEVTCVVVDVSHEDPEVKFNWYVDGVEVHNAKTKPREEQYNSTYRVVSVLTVLHQDWLNGKEYKCKVSNKALPAPIEKTISKAKGQPREPQVCTLPPSREEMTKNQVSLSCAVKGFYPSDIAVEWESNGQPENNYKTTPPVLDSDGSFFLVSKLTVDKSRWQQGNVFSCSVMHEALHNHYTQKSLSLSPGK
light: DIQLTQSPSTLSASVGDRVTITCRASESLDNYGIRFLTWFQQKPGKAPKLLMYAASNQGSGVPSRFSGSGSGTEFTLTISSLQPDDFATYYCQQTKEVPWSFGQGTKVEVKRTVAAPSVFIFPPSDEQLKSGTASVVCLLNNFYPREAKVQWKVDNALQSGNSQESVTEQDSKDSTYSLSSTLTLSKADYEKHKVYACEVTHQGLSSPVTKSFNRGEC
notes: Three-chain knob-into-hole heterodimer (scFv-Fc knob arm against CD27, Fab-Fc hole arm against CD33), human IgG1 L234A/L235A constant regions; made in ExpiCHO cells, purified on Protein A; also called 抗体CD27×CD33; 双特异抗体CD27×CD33
binds: [1] | [2] | [3] | [4]
